Measurements reported in patent publication US20030124585A1, “Type II gonadotropin-releasing hormone receptor and polynucleotides encoding therefor” (Medical Research Council, priority 2000, published 2003).
Like-named read-outs stand apart in the source and are kept apart here. Square brackets hold non-standard residues; d marks the D form. Ends that are not written are not given here.

Key:
[1] = target: T1, Marmoset Type II GnRH receptor (marmoset); assay: cell-based or functional assay
T1 chain: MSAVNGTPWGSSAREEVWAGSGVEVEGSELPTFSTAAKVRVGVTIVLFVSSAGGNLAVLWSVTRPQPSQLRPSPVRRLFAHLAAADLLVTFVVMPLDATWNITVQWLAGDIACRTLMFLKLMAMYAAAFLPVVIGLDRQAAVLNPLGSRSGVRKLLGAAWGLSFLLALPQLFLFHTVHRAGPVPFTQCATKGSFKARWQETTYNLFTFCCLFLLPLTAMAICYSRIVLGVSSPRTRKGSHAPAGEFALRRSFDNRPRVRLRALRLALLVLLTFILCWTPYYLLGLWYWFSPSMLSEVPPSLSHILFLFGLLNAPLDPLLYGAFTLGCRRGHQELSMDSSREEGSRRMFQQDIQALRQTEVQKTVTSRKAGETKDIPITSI

[2] = target: T1, Marmoset Type II GnRH receptor …; assay: competition with ^125I-[His^5-D-Tyr^6]GnRH I on COS-7 cells expressing the receptor (n = 3-6)
[3] = target: T1, Marmoset Type II GnRH receptor …; assay: competition with ^125I-[His^5,D-Tyr^6]GnRH on COS-7 cells expressing marmoset Type II GnRH-R (FIG. 4, n=2)
[4] = target: T2, Marmoset Type II GnRH receptor (marmoset); assay: cell-based or functional assay
T2 chain: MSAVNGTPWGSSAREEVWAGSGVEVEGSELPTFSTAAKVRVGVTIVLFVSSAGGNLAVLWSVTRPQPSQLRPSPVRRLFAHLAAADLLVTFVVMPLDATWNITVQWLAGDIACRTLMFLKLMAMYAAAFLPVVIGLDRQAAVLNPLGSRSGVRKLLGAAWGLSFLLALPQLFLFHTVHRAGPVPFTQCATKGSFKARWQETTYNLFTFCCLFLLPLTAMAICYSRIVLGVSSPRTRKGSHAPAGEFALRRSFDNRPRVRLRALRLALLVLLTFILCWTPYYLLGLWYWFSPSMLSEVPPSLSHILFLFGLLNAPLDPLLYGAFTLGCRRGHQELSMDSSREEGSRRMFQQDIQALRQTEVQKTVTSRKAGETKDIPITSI

[5] = target: T2, Marmoset Type II GnRH receptor; assay: cell-based or functional assay
[6] = target: T3, human Type I GnRH receptor (human, UniProt P30968 1-328); assay: cell-based or functional assay
T3 sequence (looked up): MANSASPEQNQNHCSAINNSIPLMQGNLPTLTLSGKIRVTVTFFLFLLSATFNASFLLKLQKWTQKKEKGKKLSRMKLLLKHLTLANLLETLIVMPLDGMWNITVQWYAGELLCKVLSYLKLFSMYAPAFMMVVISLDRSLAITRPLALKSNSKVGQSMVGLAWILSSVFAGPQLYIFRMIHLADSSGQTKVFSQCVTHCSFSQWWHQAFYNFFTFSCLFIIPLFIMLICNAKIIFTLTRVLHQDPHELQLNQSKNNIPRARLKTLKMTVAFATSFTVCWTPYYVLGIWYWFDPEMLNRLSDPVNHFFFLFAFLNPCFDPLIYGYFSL

[7] = target: T2, Marmoset Type II GnRH receptor; assay: receptor binding assay on COS-7 cells; reference mammalian GnRH I
[8] = target: T2, Marmoset Type II GnRH receptor; assay: receptor binding assay on COS-7 cells; reference human Type I GnRH receptor
[9] = target: T2, Marmoset Type II GnRH receptor; assay: competition with ^125I-[His^5-D-Tyr^6]GnRH I on COS-7 cells expressing the receptor (n = 3-6)
[10] = target: T3, human Type I GnRH receptor; assay: as above
[11] = target: T2, Marmoset Type II GnRH receptor; assay: competition with ^125I-[His^5,D-Tyr^6]GnRH on COS-7 cells expressing marmoset Type II GnRH-R (FIG. 4, n=2)
[12] = target: T4, human Type I GnRH receptor (human), P30968; assay: cell-based or functional assay
T4 chain: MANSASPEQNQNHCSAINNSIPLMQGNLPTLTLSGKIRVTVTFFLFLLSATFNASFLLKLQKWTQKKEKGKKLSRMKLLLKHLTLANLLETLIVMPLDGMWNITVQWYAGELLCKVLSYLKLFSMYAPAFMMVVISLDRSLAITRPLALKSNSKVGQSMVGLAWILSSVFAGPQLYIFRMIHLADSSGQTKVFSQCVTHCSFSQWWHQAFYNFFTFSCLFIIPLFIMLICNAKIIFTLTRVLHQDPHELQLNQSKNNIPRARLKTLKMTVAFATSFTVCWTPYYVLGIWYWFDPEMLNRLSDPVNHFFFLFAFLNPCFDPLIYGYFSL

[13] = target: T4, human Type I GnRH receptor (human), …; assay: competition with ^125I-[His^5-D-Tyr^6]GnRH I on COS-7 cells expressing the receptor (n = 3-6)

Binder: QHWSYGLRPG (peptide, UniProt P01148 24-33, looked up, modifications not checked) [Mammalian GnRH I, P01148 24-33]
- InsP production (EC50) [1]: 40.5 nM
- total inositol phosphate production (EC50) [1]: 33.2 nM
- IC50 [2]: 42.6 nM
- IC50 [3]: 51.7 nM

B1: GnRH II (peptide, UniProt O43555 24-33, looked up)
peptide: QHWSHGWYPG
modifications: ends and bridges not checked
notes: mature; also called GnRH Type II; Type II GnRH
- stimulation of inositol phosphate production, fold greater activity relative to mammalian GnRH I [4]: 90 fold
- total inositol phosphate production (EC50) [4]: 0.46 nM
- InsP production (EC50) [5]: 0.45 nM
- InsP production (EC50) [6]: 7.41 nM
- fold greater activity relative to mammalian GnRH I [7]: 40 fold
- fold greater affinity than for the Type I receptor [8]: 24 fold
- IC50 [9]: 1.07 nM
- IC50 [10]: 26.1 nM
- IC50 [11]: 1.3 nM

Binder: QHWSYGWLPG (peptide, UniProt P01148 24-33, looked up, modifications not checked) [salmon GnRH, P01148 24-33]
- InsP production (EC50) [1]: 5.99 nM
- total inositol phosphate production (EC50) [1]: 8.7 nM
- InsP production (EC50) [12]: 9.62 nM
- IC50 [2]: 9.48 nM
- IC50 [13]: 244 nM
- IC50 [3]: 9.8 nM

B2: [D-Arg^6]GnRH II (peptide, UniProt O43555 24-33, looked up)
peptide: QHWSH[dR]WYPG
modifications: ends and bridges not checked
notes: mature; Synthetic analogue of GnRH II; also called [D-Arg^6]GnRH Type II
- total inositol phosphate production (EC50) [4]: 1.1 nM
- InsP production (EC50) [5]: 2.39 nM
- InsP production (EC50) [6]: 3.8 nM
- IC50 [9]: 3.34 nM
